The results in this text go back to US20240400675A1 (published 2024).

Assay [1] deals with T1, human CLDN6 (human, UniProt P56747 1-220).
T1 construct: also called Claudin 6
T1 sequence: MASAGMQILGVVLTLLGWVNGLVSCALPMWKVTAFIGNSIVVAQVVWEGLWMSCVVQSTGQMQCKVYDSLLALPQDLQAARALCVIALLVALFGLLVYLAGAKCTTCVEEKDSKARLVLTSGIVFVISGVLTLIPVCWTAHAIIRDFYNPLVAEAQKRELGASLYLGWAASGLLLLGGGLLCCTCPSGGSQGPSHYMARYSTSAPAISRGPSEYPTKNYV
Briefly: flow cytometry on HEK293-Trex cells stably expressing the claudin. (In flow cytometry, cells or beads pass a laser one at a time.)

For assay [2], the target named is T2, human CLDN9 (human, UniProt O95484 1-217).
T2 construct: also called CLND9
T2 sequence: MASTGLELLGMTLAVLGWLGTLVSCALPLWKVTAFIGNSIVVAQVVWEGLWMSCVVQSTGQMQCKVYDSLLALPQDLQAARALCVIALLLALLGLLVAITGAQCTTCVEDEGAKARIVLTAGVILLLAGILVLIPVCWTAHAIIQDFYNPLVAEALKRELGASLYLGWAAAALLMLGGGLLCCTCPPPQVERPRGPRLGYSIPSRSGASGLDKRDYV
Nature of the assay: flow cytometry on transfected HEK293E cells. The protocol: (§1) The following experiments used to screen CLDN6 binding domains were generally performed as follows. HEK293T or HEK293E cells were respectively stably or transiently transfected to express CLDN6, CLND9, or other targets of interest. 48 hours post transfection, cells were harvested and incubated with dilutions of the indicated test articles for 1 hour at 4° C. […] Binding was then assessed via flow cytometry.

The target of assay [3] is T1, human CLDN6. Nature of the assay: flow cytometry on transfected cells.
Assay [4] deals with T1, human CLDN6. Briefly: flow cytometry on HEK293E cells expressing CLDN6. On the procedure:
as §1

Assay [5] concerns the target T1, human CLDN6. Briefly: flow cytometry on HEK293E cells expressing CLDN6 or CLDN9; EC50 on CLDN9 cells divided by EC50 on CLDN6 cells. On the procedure: as §1

B1: XENP34221, humanized C6-30 H2L2 bivalent mAb (antibody, human IgG1, kappa, V domains shown)
VH: EVQLVQSGAEVKKPGESLRISCKTSGYTFTEYTMHWVRQMPGKSLEWMGGIDPNNGNTHYNQKFQGHVTISVDKSISTAYLQWSSLKASDTAMYYCARIYYFGRLYFDFWGAGTLVTVSS
VL: DIQMTQSPDSLAVSLGERATINCKASEDIYNRLAWYQQKPGQVPKLLISGATSLETGVPSRFSGSGSGKDYTLTISSLQAEDVAVYYCQQYWSSPLTFGGGTKVEIKR
notes: IgG1 with ablation variant; copies: 2 + 2
As to B1, the binding result in assay [1] is reported as “binds”.

B2: XENP35101 having H2.8_L1 (antibody, human IgG1, kappa, V domains shown)
VH: EVQLVQSGAEVKKPGESLRISCKTSGYTFTEYTMHWVRQMPGKSLEWMGGIDPNNDNTHYNQKFQGHVTISVDKSISTAYLQWSSLKASDTAMYYCARIYYFGRLYFDFWGAGTLVTVSS
VL: DIQMTQSPSSLSASVGDRVTITCQASEDIYNRLAWYQQKPGKVPKLLISGATSLETGVPSRFSGSGSGKDYTFTISSLQPEDIATYYCQQYWSSPLTFGGGTKVEIKR
notes: Bivalent mAb; also called C6-30 H2.8_L1; copies: 2 + 2
Regarding B2, the binding result in assay [2] is recorded as “binds”.

B3: XENP34219, humanized C6-30 H1L2 bivalent mAb (antibody, human IgG1, kappa, V domains shown)
VH: QVQLVQSGAEVKKPGASVKVSCKTSGYTFTEYTMHWVRQAPGQSLEWMGGIDPNNGNTHYNQKFQGRVTITVDKSASTAYMELSSLRSEDTAVYYCARIYYFGRLYFDFWGAGTLVTVSS
VL: DIQMTQSPDSLAVSLGERATINCKASEDIYNRLAWYQQKPGQVPKLLISGATSLETGVPSRFSGSGSGKDYTLTISSLQAEDVAVYYCQQYWSSPLTFGGGTKVEIKR
notes: as for B1
In the case of B3, the binding result in assay [3] is reported as “binds”.

B4: XENP34220, humanized C6-30 H2L1 bivalent mAb (antibody, human IgG1, kappa, V domains shown)
VH: EVQLVQSGAEVKKPGESLRISCKTSGYTFTEYTMHWVRQMPGKSLEWMGGIDPNNGNTHYNQKFQGHVTISVDKSISTAYLQWSSLKASDTAMYYCARIYYFGRLYFDFWGAGTLVTVSS
VL: DIQMTQSPSSLSASVGDRVTITCQASEDIYNRLAWYQQKPGKVPKLLISGATSLETGVPSRFSGSGSGKDYTFTISSLQPEDIATYYCQQYWSSPLTFGGGTKVEIKR
notes: IgG1 backbone with ablation variant; copies: 2 + 2
With B4, in assay [3], the binding result was “binds”.

B5: XENP35102 having H2.9_L1 (antibody, human IgG1, kappa, V domains shown)
VH: EVQLVQSGAEVKKPGESLRISCKTSGYTFTEYTMHWVRQMPGKSLEWMGGIDPNNANTHYNQKFQGHVTISVDKSISTAYLQWSSLKASDTAMYYCARIYYFGRLYFDFWGAGTLVTVSS
VL: DIQMTQSPSSLSASVGDRVTITCQASEDIYNRLAWYQQKPGKVPKLLISGATSLETGVPSRFSGSGSGKDYTFTISSLQPEDIATYYCQQYWSSPLTFGGGTKVEIKR
notes: Bivalent mAb; also called C6-30 H2.9_L1; copies: 2 + 2
On to B5, for which the binding result in assay [2] is on record as “binds”.

B6: XENP37233 (C6-30_H2.91_L1.187), 2+1 Fab2-scFv-Fc bsAb with CD3 High-Int #1 (bispecific antibody)
heavy 1: EVQLVQSGAEVKKPGESLRISCKTSGYTFTEYTMHWVRQMPGKSLEWMGGIDPNNFNTHYNQKFQGHVTISVDKSISTAYLQWSSLKASDTAMYYCARIYYFGRLYFDFWGAGTLVTVSSASTKGPSVFPLAPSSKSTSGGTAALGCLVKDYFPEPVTVSWNSGALTSGVHTFPAVLQSSGLYSLSSVVTVPSSSLGTQTYICNVNHKPSDTKVDKKVEPKSCDKTHTCPPCPAPPVAGPSVFLFPPKPKDTLMISRTPEVTCVVVDVKHEDPEVKFNWYVDGVEVHNAKTKPREEEYNSTYRVVSVLTVLHQDWLNGKEYKCKVSNKALPAPIEKTISKAKGQPREPQVYTLPPSREEMTKNQVSLTCDVSGFYPSDIAVEWESDGQPENNYKTTPPVLDSDGSFFLYSKLTVDKSRWEQGDVFSCSVMHEALHNHYTQKSLSLSPGK
heavy 2: EVQLVQSGAEVKKPGESLRISCKTSGYTFTEYTMHWVRQMPGKSLEWMGGIDPNNFNTHYNQKFQGHVTISVDKSISTAYLQWSSLKASDTAMYYCARIYYFGRLYFDFWGAGTLVTVSSASTKGPSVFPLAPSSKSTSGGTAALGCLVKDYFPEPVTVSWNSGALTSGVHTFPAVLQSSGLYSLSSVVTVPSSSLGTQTYICNVNHKPSNTKVDKKVEPKSCGGGGSGGGGSQAVVTQEPSLTVSPGGTVTLTCGSSTGAVTTSNYANWVQQKPGKSPRGLIGGTNKRAPGVPARFSGSLLGGKAALTISGAQPEDEADYYCALWYSNHWVFGGGTKLTVLGKPGSGKPGSGKPGSGKPGSEVQLVESGGGLVQPGGSLRLSCAASGFTFSTYAMNWVRQAPGKGLEWVGRIRSKANNYATYYADSVKGRFTISRDDSKNTLYLQMNSLRAEDTAVYYCVRHGNFGDSYVSWFAYWGQGTLVTVSSGGGGSGGGGSKTHTCPPCPAPPVAGPSVFLFPPKPKDTLMISRTPEVTCVVVDVKHEDPEVKFNWYVDGVEVHNAKTKPREEQYNSTYRVVSVLTVLHQDWLNGKEYKCKVSNKALPAPIEKTISKAKGQPREPQVYTLPPSREQMTKNQVKLTCLVKGFYPSDIAVEWESNGQPENNYKTTPPVLDSDGSFFLYSKLTVDKSRWQQGNVFSCSVMHEALHNHYTQKSLSLSPGK
light: not shown
notes: copies: 1 + 1 + 2
On to B6, for which the binding result in assay [4] is listed as “binds”.

B7: XENP34218, humanized C6-30 H1L1 bivalent mAb (antibody, human IgG1, kappa, V domains shown)
VH: QVQLVQSGAEVKKPGASVKVSCKTSGYTFTEYTMHWVRQAPGQSLEWMGGIDPNNGNTHYNQKFQGRVTITVDKSASTAYMELSSLRSEDTAVYYCARIYYFGRLYFDFWGAGTLVTVSS
VL: DIQMTQSPSSLSASVGDRVTITCQASEDIYNRLAWYQQKPGKVPKLLISGATSLETGVPSRFSGSGSGKDYTFTISSLQPEDIATYYCQQYWSSPLTFGGGTKVEIKR
notes: IgG1 backbone with E233P/L234V/L235A/G236del/S267K ablation variant; also called XENP34218_HIL1
With B7, the “CLDN9/CLDN6 EC50 ratio” value in assay [5] was 23.

B8: XENP35093 (having C6-30 H1.9_L1) (antibody, human IgG1, kappa, V domains shown)
VH: QVQLVQSGAEVKKPGASVKVSCKTSGYTFTEYTMHWVRQAPGQSLEWMGGIDPNNANTHYNQKFQGRVTITVDKSASTAYMELSSLRSEDTAVYYCARIYYFGRLYFDFWGAGTLVTVSS
VL: DIQMTQSPSSLSASVGDRVTITCQASEDIYNRLAWYQQKPGKVPKLLISGATSLETGVPSRFSGSGSGKDYTFTISSLQPEDIATYYCQQYWSSPLTFGGGTKVEIKR
notes: Bivalent mAb; also called G55A; copies: 2 + 2
With B8, the binding result in assay [3] is “binds”.

B9: XENP36972 having H1_L1.187 (antibody, human IgG1, kappa, V domains shown)
VH: QVQLVQSGAEVKKPGASVKVSCKTSGYTFTEYTMHWVRQAPGQSLEWMGGIDPNNGNTHYNQKFQGRVTITVDKSASTAYMELSSLRSEDTAVYYCARIYYFGRLYFDFWGAGTLVTVSS
VL: DIQMTQSPSSLSASVGDRVTITCQASEDIYNRLAWYQQKPGKVPKLLISGATSLETGVPSRFSGSGSGKDYTFTISSLQPEDIATYYCQQYWSAPLTFGGGTKVEIKR
notes: Bivalent mAb; also called C6-30 H1_L1.187; copies: 2 + 2
Take B9: the “CLDN9/CLDN6 EC50 ratio” value in assay [5] amounted to 52.6.
